Assay results taken from the supplement of paper PMC10724198.
± gives the standard deviation of the averaged measurements.

Tested on: Saccharomyces cerevisiae
Assay: protein stability index of tFT-peptide fusion (C-terminal peptide) (PSI (0-1 scale)); higher = more stable (slower turnover)
Settings: genetic background: wild type; temperature: 30 C
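Also: PSI is a weighted mean of sequencing reads over stability bins, variants kept only with over 10 reads, mCherry proximal and sfGFP distal, peptide attached via GGGS linker.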

Compared with LASPPIIVFSQM, VVARLERAGLGG is higher in protein stability index: 0.556 ± 0.016 for the first, 0.766 ± 0.094 for the second.

SLYPRALDFGPM and PLEYPAQATMKP are within error of each other in protein stability index: 0.692 ± 0.033 for the first, 0.657 ± 0.021 for the second.

Compared with WLRSLLKENLVR, PPPLPPPSPCPL is higher in protein stability index: 0.5422 ± 0.0016 for the first, 0.702 ± 0.018 for the second.

First: LGLSFYPPLIIS
Second: AVRFISRLPPPA
The protein stability index of the first is lower: 0.559 ± 0.0094 for the first, 0.686 ± 0.078 for the second.

Going from PTPPPALPPPPL to RLGAEYNWVNLS, the protein stability index falls from 0.6994 ± 0.0054 to 0.6362 ± 0.0026.

VRVCWGCCGVVF and FFCILCAHWFPL are within error of each other in protein stability index: 0.51 ± 0.024 for the first, 0.589 ± 0.086 for the second.

First: VVRWRMGLFGGR
Second: PDYPYQDQLARL
The protein stability index of the first is lower: 0.654 ± 0.013 for the first, 0.784 ± 0.058 for the second.

LRVFPVFSWFDR and CLSGLIIMPSVG are within error of each other in protein stability index: 0.678 ± 0.15 for the first, 0.675 ± 0.035 for the second.

GHRTIPHSNCLS and INSSPRSSTLLL are within error of each other in protein stability index: 0.65 ± 0.0099 for the first, 0.686 ± 0.034 for the second.

VYVLHNVMCSSD and PTLPACFCPPAP are within error of each other in protein stability index: 0.632 ± 0.051 for the first, 0.639 ± 0.097 for the second.

Going from LKQNRIKCPWTL to LGSAAVPGLCRL, the protein stability index rises from 0.728 ± 0.017 to 0.853 ± 0.0092.

Compared with VSGLDSLHPSSN, HFSLCSNRSNPP is lower in protein stability index: 0.717 ± 0.034 for the first, 0.646 ± 0.015 for the second.

APPPPLPPPPSP and LLLFPLPLLPFH are within error of each other in protein stability index: 0.689 ± 0.092 for the first, 0.686 ± 0.037 for the second.

RHIKIADYKTLT and KKTKKKKQTKRK are within error of each other in protein stability index: 0.686 ± 0.04 for the first, 0.677 ± 0.038 for the second.

Compared with VAAEGCGAALSR, GTHGQAQRVAGQ is higher in protein stability index: 0.627 ± 0.0099 for the first, 0.7248 ± 0.0061 for the second.

Compared with KKIKKKRTEPQP, QLDPLRPASEFA is lower in protein stability index: 0.694 ± 0.02 for the first, 0.602 ± 0.043 for the second.

Compared with WLRVLFPSSPGD, AELAMGVSDMYS is higher in protein stability index: 0.607 ± 0.04 for the first, 0.6782 ± 0.0013 for the second.

Going from PYSPPAHLLSLL to ETKRRQEQNIVR, the protein stability index falls from 0.878 ± 0.061 to 0.721 ± 0.082.

First: KHKAQQGSHGPQ
Second: SNIDIEAELNKT
The protein stability index of the first is lower: 0.616 ± 0.017 for the first, 0.728 ± 0.031 for the second.

LTPYLYPQPSSP and LMWPTSHLPQPQ are within error of each other in protein stability index: 0.673 ± 0.031 for the first, 0.734 ± 0.092 for the second.

First: MCFLSCCSFRFC
Second: TGRRLVLGDRCM
The protein stability index of the first is lower: 0.6162 ± 0.0044 for the first, 0.72 ± 0.011 for the second.

PVPLLPLSFSLL and RWWGDEAHRDGA are within error of each other in protein stability index: 0.736 ± 0.064 for the first, 0.81 ± 0.049 for the second.

PCPAPPPASSSP and LPARFLIDFTRV are within error of each other in protein stability index: 0.728 ± 0.16 for the first, 0.688 ± 0.029 for the second.

PFPSPPAPPPLP and LCTALLRSLTVG are within error of each other in protein stability index: 0.672 ± 0.048 for the first, 0.744 ± 0.13 for the second.

First: RLSSLSPFLVLS
Second: VSMPIVPWPLLQ
The protein stability index of the first is higher: 0.589 ± 0.0084 for the first, 0.54 ± 0.016 for the second.

RRVVIVSGWGWG and CVFAPLFYNVYA are within error of each other in protein stability index: 0.591 ± 0.064 for the first, 0.585 ± 0.019 for the second.

Going from GGGGRAALRWYG to VNAGAPGVLAWV, the protein stability index rises from 0.651 ± 0.014 to 0.739 ± 0.021.

Compared with CMCFFMGGWWCV, ISPTPPAPSRPS is higher in protein stability index: 0.608 ± 0.0067 for the first, 0.688 ± 0.015 for the second.

GVGGGVRLVVSR and PPPPPLSLLLPP are within error of each other in protein stability index: 0.633 ± 0.052 for the first, 0.703 ± 0.032 for the second.

VSSVGILPFRFN and CGWIQYSVSHDL are within error of each other in protein stability index: 0.72 ± 0.077 for the first, 0.712 ± 0.059 for the second.

RNSDPRLGGNTF and PPLCTTPTPRRV are within error of each other in protein stability index: 0.687 ± 0.052 for the first, 0.735 ± 0.041 for the second.

EGDGQVWGGQGG and FHLPLSSHDPLL are within error of each other in protein stability index: 0.644 ± 0.0078 for the first, 0.747 ± 0.11 for the second.

SPVTDRRKRRNN and FRSTKELLQLGR are within error of each other in protein stability index: 0.666 ± 0.012 for the first, 0.664 ± 0.055 for the second.

EGRRAGRVGTQV and CSFFNSFPVFWL are within error of each other in protein stability index: 0.688 ± 0.024 for the first, 0.7 ± 0.014 for the second.

Going from PSQHVHTSPLYS to DESRVYLSIALL, the protein stability index falls from 0.695 ± 0.022 to 0.623 ± 0.035.

PPAFFPHSRPLL and PPAGCSPSPRSP are within error of each other in protein stability index: 0.598 ± 0.038 for the first, 0.66 ± 0.056 for the second.

First: GGWHVVGGEGVG
Second: PPSAPLPTLLHH
The protein stability index of the first is lower: 0.524 ± 0.0082 for the first, 0.722 ± 0.094 for the second.

VVHGIGLIYTGG and DGVRCCTKWTCA are within error of each other in protein stability index: 0.68 ± 0.041 for the first, 0.679 ± 0.013 for the second.

VHDPLLPIFLIR and PPPPPPPPLPAP are within error of each other in protein stability index: 0.684 ± 0.042 for the first, 0.664 ± 0.018 for the second.

AFRGGGVPGDFA and RWGVFRSLPSPS are within error of each other in protein stability index: 0.624 ± 0.024 for the first, 0.622 ± 0.17 for the second.

VGGPRVLVRGVY and GLQPVGLYPFQL are within error of each other in protein stability index: 0.6754 ± 0.0055 for the first, 0.668 ± 0.008 for the second.

Compared with PPTRLPQGVSWR, FAFRGFLIGCGV is lower in protein stability index: 0.702 ± 0.066 for the first, 0.54 ± 0.011 for the second.

First: PDPTLPTPSRPP
Second: YCHTSISPNSHL
The protein stability index of the first is lower: 0.642 ± 0.024 for the first, 0.787 ± 0.096 for the second.

CVARRPSLIGRN and GVAGGLLLRGGR are within error of each other in protein stability index: 0.655 ± 0.027 for the first, 0.673 ± 0.13 for the second.

Going from RTTAGINAFPGV to GRLQRKQRKYKA, the protein stability index rises from 0.6184 ± 0.0051 to 0.719 ± 0.0083.

PRSSTSFLPSFL and LRQQTRGTIIEC are within error of each other in protein stability index: 0.678 ± 0.064 for the first, 0.703 ± 0.029 for the second.

PPSPELALSLGH and LQLLPPGLRQLP are within error of each other in protein stability index: 0.673 ± 0.038 for the first, 0.679 ± 0.0079 for the second.

KINRTKTAPITR and YCTVDECWGRWH are within error of each other in protein stability index: 0.724 ± 0.044 for the first, 0.709 ± 0.08 for the second.

VQTLYSQLPALR and LNNAIAGGSVGI are within error of each other in protein stability index: 0.78 ± 0.069 for the first, 0.702 ± 0.074 for the second.

Compared with YSLSDVAVLAST, GGPRDNEGSWWV is higher in protein stability index: 0.629 ± 0.045 for the first, 0.7122 ± 0.0029 for the second.

With GHGLLYLIDLCS the protein stability index was 0.638 ± 0.074.
